Positions of bridges follow the written chain, without caps; N, C: chain ends. No end group written: not given here.
B1: SEQ ID NO 94 (peptide)
chain: NDEHMYCRLLGLDCN
modifications: not fully specified (C-terminus, bridges); cysteine pairing not given here
notes: not shown: M13 major coat protein; peptide fused to its N-terminus
B2: SEQ ID NO 73 (peptide)
chain: KEDSMYCRLLGLGCG
modifications: not fully specified (C-terminus, bridges); cysteine pairing not given here
notes: as for B1
B3: SEQ ID NO 93 (peptide)
chain: NPENNYCRLLNLGCG
notes: as for B1
B4: SEQ ID NO 70 (peptide)
chain: NEESIYCRLLGLGCG
modifications: not fully specified (C-terminus, bridges); cysteine pairing not given here
notes: as for B1
B5: SEQ ID NO 83 (peptide)
chain: YEESIYCRLLGIGCG
modifications: not fully specified (C-terminus, bridges); cysteine pairing not given here
notes: as for B1
B6: SEQ ID NO 72 (peptide)
chain: NEESIYCRLLGLACG
modifications: not fully specified (C-terminus, bridges); cysteine pairing not given here
notes: as for B1
B7: SEQ ID NO 87 (peptide)
chain: YEESIYCRLLGLGCG
modifications: not fully specified (C-terminus, bridges); cysteine pairing not given here
notes: as for B1
B8: SEQ ID NO 91 (peptide)
chain: AEESIYCRLLGLGCG
modifications: not fully specified (C-terminus, bridges); cysteine pairing not given here
notes: as for B1
B9: SEQ ID NO 74 (peptide)
chain: VEESIYCRLLGLGCG
notes: as for B1
B10: SEQ ID NO 71 (peptide)
chain: KEENIYCRLLSLGCS
notes: as for B1
B11: SEQ ID NO 95 (peptide)
chain: NDENMYCRLLGLGCA
modifications: not fully specified (C-terminus, bridges); cysteine pairing not given here
notes: as for B1
B12: SEQ ID NO 92 (peptide)
chain: NEVSLYCRLLDLGCG
modifications: not fully specified (C-terminus, bridges); cysteine pairing not given here
notes: as for B1
B13: SEQ ID NO 89 (peptide)
chain: KEESLYCRLLGLGCG
modifications: not fully specified (C-terminus, bridges); cysteine pairing not given here
notes: as for B1
B14: SEQ ID NO 69 (peptide)
chain: NMESVHCRLLGLGCG
notes: as for B1
B15: SEQ ID NO 90 (peptide)
chain: TEESIYCRLLGLGCD
notes: as for B1

target: T1, recombinant human BACE1 (rhBACE1) (human, UniProt P56817 22-457, limits assumed); assay: cell-based or functional assay
T1 sequence (P56817 22-457 limits assumed): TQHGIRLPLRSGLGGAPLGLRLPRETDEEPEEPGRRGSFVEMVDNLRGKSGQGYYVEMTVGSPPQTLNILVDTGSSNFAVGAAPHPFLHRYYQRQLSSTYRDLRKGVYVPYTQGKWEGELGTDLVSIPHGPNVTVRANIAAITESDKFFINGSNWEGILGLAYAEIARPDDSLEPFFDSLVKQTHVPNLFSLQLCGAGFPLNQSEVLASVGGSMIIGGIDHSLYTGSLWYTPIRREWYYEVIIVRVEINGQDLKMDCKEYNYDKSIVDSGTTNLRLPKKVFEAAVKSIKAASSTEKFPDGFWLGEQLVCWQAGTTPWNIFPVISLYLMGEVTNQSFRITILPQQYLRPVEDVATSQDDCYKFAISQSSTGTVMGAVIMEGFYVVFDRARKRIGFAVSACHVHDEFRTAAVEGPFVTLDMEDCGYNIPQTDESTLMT

Caliper (MCE) BACE1 activity assay IC50 | Binder
> 10 µM | Ac-ESMYCALLGIGCG-NH2 (disulfide 5-12 (inferred)) [BACE057]
8.09 µM | Ac-MYCRLLGIGCG-NH2 (disulfide 3-10 (inferred)) [BACE032]
10.9 µM | Ac-YCRLLGIGCG-NH2 (disulfide 2-9 (inferred)) [BACE033]

target: T1, recombinant human BACE1 (rhBACE1); assay: spot phage ELISA, plate-immobilized BACE1 against BSA

fold improvement of signal/noise ratio over parent BACE017 | Binder
> 5 fold | B1
> 5 fold | B2
> 5 fold | B3
> 5 fold | B4
> 5 fold | B5
> 5 fold | B6
> 5 fold | B7
> 5 fold | B8
> 5 fold | B9
> 5 fold | B10
> 5 fold | B11
> 5 fold | B12
> 5 fold | B13
> 5 fold | B14
> 5 fold | B15

— US20140228277A1 (Genentech, published 2014)
